tested on: K4 kissing-loop RNA reporter; experiment: apparent KD of K4 kissing-loop reporter; higher = weaker reporter binding; settings: Eterna round: R107; input ligand: FMN 200 uM
Experimental: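 RNA-MaP round R107: designed RNA switches with theophylline, tryptophan, arginine or FMN aptamers are transcribed on-chip within common flanks. They are titrated with a labelled K4 kissing-loop RNA reporter in RNA-MaP buffer (100 mM Tris pH 7.5, 80 mM KCl, 4 mM MgCl2), without ligand or with the indicated ligand. Median apparent KD per design.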
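Note: bound reporter read as fluorescence of individual clusters on recovered sequencing chips by microscopy, with normalized cluster intensities fitted with a binding model.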

Sequence | apparent KD of K4 kissing-loop reporter
UGUCAUUGGUCGGCCGCCACUUCAUGUAGAGUGAUGUUUUGUAGGACGGAUCGAAAGAUCUGUCGGAGGACCGGGACCGAUGACU [FiskerMod 16 - Jieux - Same State - Tryptophan B] | 121 nM
ACGUCCGGAUUAAUCGUGGGCAUGGUCGAUACCAGAUCUUUAAUGAUCCCUUGGCAGCGACAUGAGUGAUGUUCAUGUGCGAUGA [KL-XTheo-A8 #analogue] | 188 nM
GGAUGCAUAGUAGAUACCAGCAAGCUCGGAUAGUGAUGUUGUUCGCAGUCAUUUCGGUAGUGCCCUUGGCAGCUAGACGCCCGAU [theeternabot_exclusion_KL_Theo_B_36] | 109 nM
GAGGCCAGACUGAGUGAUGUUUAGUAUGAUACCAGUAUCGAAGGAUACCCUUGGCAGCAUGCCACGGCCUCGGCGGGAAACCGCC | 746 nM
GAGUCCUUUGAAGGAUAUAGACGUCCCGAUCACUCAGUUGGCGAGCGAGUGAUGUUCGUUCCUAUACUAGAAGGUCAAAGCCUCC [theeternabot_sameState_KL_FMN_B_32] | 225 nM
AGACUACCACACUGUCAAUAGACAGUGGACUAGGAUAUGCUGAUAAGCAGAAGGAGUGAUGUUCCUCGGUAGUCAAUAAAAUAAU [FmnAX 13 G28+C67] | 323 nM
CUCGAGUGAUGUUCGAUUAUUUAUACAGAUACCAGUGAAUUUUAACACCCUUGGCAGCUGGUAGUAUCGUUGUAAUUUACACAAG [JR_ExcTheophyA_Sub004] | 99.8 nM
GGGAAGGACGGAGGAUAUGCACUGAGGAGGAGAAUAUAGUGAUGUUAUAUAAGAGGAAGGAGCUGAGUAGAAGGCCGAGGAAAGG [whbob_SS_FMNB__2th207] | 147 nM
AGUGAUAUAUGAGGAUAUGGGAUUGUUAAUGAGUUAGUUUUAGUGUUGUUUGGUUAGUGAUGUUAUUUAGAAGGCGUGAGUGAUG [kuktrmullin] | 93.6 nM
UGUAAUUCGGCGGCCGCCACUGACCAUAGCCUUCGAUGGCCAGUGAUGUUGGCCUCUGGCUCUAACAGGACCGGGCCGAAUUGCG [Sotetiqu] | 243 nM
AAAGUUGAUGAGUUGGGUAUGUGUUCCGAAGGAGCGAGAAUUAUCUCAGGUAGGUCGCGGAAGAUGAGUGAUGUUCAUCUAUAAA [KL-XArg-A8 #analogue] | 147 nM
GUAUGUGGAAACACGUACUUAUAUCCUAGGCAGGAUAUGCGGAAACGCAGAAGGGCCACCGGCGAGUUUAUCCAGUGAUGUUGGA [Ex FMN A 8] | 251 nM
AUUAAUUUCAGAGGAUAUCGUUAUUUUUUUAAGUAUAAUCUAUUAUGCAGUGAUGUUGCUAUUAAUCGAGAAGGCUGAUUUAUAA [JR_ExcFMNB_Sub001] | 114 nM
AACCUACGAUCACAAUAGUGAUUGUAGGACUAGGAUAUGCUGAAAAGCAGAAGGAGUGAUGUUCCACUCAUGAAUAACAUGAGAA [FmnAX 4 #OpenEnded #K4Late #CoaxialStacking] | 594 nM
UGAUAGGACAGAAGGAGCGGUAGUGAUGUUACCAAAAGGAUAAGGUGUCAAAAGACACCCUACCAGGUAGGUCGCUGUCCUAUCU | 124 nM
GCGCGUCAUGUCAGCGGUGACUAUGUCGAUACCAGCAGGGAAACCUGCCCUUGGCAGCGACGCGCUGGAGUGAUGUUCCGACGGC [#2 Exclusion - Theophylline A Attempt #8 (HarryS)] | 165 nM
AGAGAUAUAUGAGGAUAUGAGUUAGUUAAUGAGUUAGUUUUAGUGUUGUUUGGUUAGUGAUGUUAUUUAGAAGGCGUGAGUGAUG [cxfsmullin] | 89.7 nM
AAAUCUUUCAGAAGGAGCGUGGAUUAUUCUUAUAUAUUUAUUACGAGUGAUGUUCGUAAUUCACAGGUAGGUCGCUGAUCAAUAA [JR_ExcArginiB_Sub006] | 87.5 nM
UGUCAUUGGUCUGAUACCAGCUUGAUCGGAAACGAUCUGCUGGAGUGAUGUUCCAAGUAAAGCCCUUGGCAGCAGACCGAUGACU [TheoBS 8 #SwitchBubble #StaticStem] | 129 nM
GUAGAUAGGCUACAUCUCUAGUCUAAAGACUAGGAUAUCAGGAAACUGAGAAGGAGUCUCAUUGGAGUGAUGUUCCAAGAAUAAU [KL-SSFMN-A16] | 100 nM
CGUUUAUAGCAGGAUACCAGUACCCAUAAAGUACGUUAAUAGUAGAGUGAUGUUCUAAAGUACCCUUGGCAGCUUAGAGUGAGUG [ExTheophylB.Q] | 93.5 nM
GCCGCCGCGGCAGGAUAUAGACAUUGAGUGAUGUUCGGUGCUUAUCCAAAGUGCUGUUUCGGCCAACUAGAAGGGCCGCGGCGGC | 204 nM

Sequence | apparent KD of K4 kissing-loop reporter
GCGCGUCAUGUCAGCGGUGACUCUGUCGAUACCAGCGCCGCAAGGCGCCCUUGGCAGCGACGCGCUGGAGUGAUGUUCCAGCGUG [#2 Exclusion - Theophylline A Attempt #13 (HarryS)] | 157 nM
UGAUAGGACAGAAGGAGCGGUAGUGAUGUUACCAAAAGGUUAAGGUGUCAAAAGACACCCUACCAGGUAGGUCGCUGUCCUAUCU | 152 nM
ACCUAGUAGACAGGAUAUCACGAUGACAGUGAUGUUGUCAUCAUCGAUUUGAGGAAACUCAGAUCGUGAGAAGGGUCUAACGACU [FMN B SS t7a] | 147 nM
AAACUCAGUGAUGUUGAGUGGGAGCGGGAUACCAGAUCGCCCAUCAUCCCUUGGCAGCCCGAGCGUCAGAAUACAUUUCAUUUGC [theeternabot_sameState_KL_Theo_A_6] | 339 nM
AUAGGAUUGCGAGGAUAUCCUUCCCACGUCGAAGUACCGUGCUUGAUGGAGUGAUGUUCGAUCAGAGGAGAAGGUGCGGUUUUGU [Same State FMN B GF24] | 292 nM
UAGCGCAACCUGCUUACGUAUGAGCCGGAAGGAGCGGCAGAAUUGCCAGGUAGGUCGCCGGCCCAGUGAUGUUGGGAUGGUGUGG [Usritiis] | 265 nM
CGCUUGCACGGAAGGAGCGUCCAAGCGAGACACGAGUGAUGUUCGUGAUCGACGUAAACUGGACAGGUAGGUCGCCGUGCUUAAU [Eresti] | 107 nM
CGCUUGGGUGCGGCCGCCACUAGAGCGUGACACGGGUCCCAAAAGGGUGCAGUGAUGUUGCAGCCUAGGACCGGGCACCUCUGGC [Beveesbe] | 107 nM
GCUAUGGUAGGAAGGAGCGCUUGCUCGGUCAUAUGAGUGAUGUUCGAGACCGAGCAUUUAUAGCAGGUAGGUCGCCUACUAUAGC [Arginine B K4 8] | 253 nM
UUUUAUUCGUACUUCUAGUGAUGUUAGAUUCGAGGACCGGUACGGCCGCCACUCGUUAAGGCGAUUUUAUAUUUUUUAUUCUUUA [JR_SSTryptoA_Sub012] | 182 nM
UACUUAUAGUUAUUUCUAAAUUUAUUUAGUCAGGAUAUCGAAUAGUCGAGAAGGGACAUAAUCAAGUGAUGUUUGAUUAUUCAAA [JR_SSFMNA_Sub023] | 64.8 nM
UAUUAAUUGUCAGGAUAUCGAAAUCGAGUGAUGUUCGUAAAUUAAUUAUUAUUAAUAAUAUUUAAACGAGAAGGGACAUUAUUUA [JR_SSFMNB_Sub001] | 235 nM
UAACUCUUGCAGUGAUGUUGCAAGUAAGCUCAGGAUAUCAGGAAACUGAGAAGGGAGCAUCCUGAGCAACUGCAAGAGCUCAGAA [[K1]-[K2]-[F1]-[F2]-[F]'-[K]'-[F]''_Design1] | 224 nM
GGCACGGUAACGCAACCGCCGUGCGCUUGGGAGGAUAUGUUUCGUGACAGAAGGCCCAGUGAUGUUGGGUCUGUUCAAAAGGACU [Ceenerus] | 355 nM
UGAUAGGACAGAAGGAGCGGGAGUGAUGUUCCCAAAAGGGUAAGGUGUCAAAAGACACCCUUCCAGGUAGGUCGCUGUCCUAUCU | 97.7 nM
GCCGUAGAUUGAAGGAGCGGUAUGGGCGUUGGCUGAGUGAUGUUCAGGGAAAGUGGCUUCUACCAGGUAGGUCGCAAUCUACGGC | 164 nM
UGUAUGUGAUUUGAUACCAGACCAGCUGGUGGUUCACGAGUGAUGUUCGUGUUGGUUUGGGUCCCUUGGCAGCAAAUCGCAUACU [KL-SSTheoB12] | 159 nM
ACGUGCACCAGUGAUGUUGGAAAAUAUGAAGGAGCGGGUGAAAGCCCAGGUAGGUCGCAUAAUAGCACGAGCCACGAAAGUGGCA | 131 nM
CGCAGUGAUGUUGUGAUUAACUACAGGGAAGGAGCGUGCUAGAGCACAGGUAGGUCGCCCAGUGGCCGAGUGAUGUUCGGCGGGU [Same State Arginine A GF 27] | 237 nM
UUUGUAGAGGGAAGGAGCGUGAAAGAGAAAGAAUAUAGUGAUGUUAUAUAGAAGAAAGAAUCACAGGUAGGUCGCCCGGAGGAGG [SSArgB.E] | 463 nM
ACACGUGUGGCAGGAUAUCGGGCUGUGGAUCGGCUGGUUGCUUAUUCUCGACCAGUGAUGUUGGUACGAGAAGGGCUACCCAGAA [Diorce] | 149 nM
AGGAGCGUGCGAUGCAAAUCGCACGCUCCUCGAGGACCGGUACGGCCGCCACUCGCUCGCGCCGAGUGAUGUUCGGCCGGCGAAC [#2 Same State - Tryptophan A Attempt #10 (HarryS)] | 266 nM

same assay, conditions: Eterna round: R107; input ligand: arginine 13.2 mM

Sequence | apparent KD of K4 kissing-loop reporter
UGUCAUUGGUCGGCCGCCACUUCAUGUAGAGUGAUGUUUUGUAGGACGGAUCGAAAGAUCUGUCGGAGGACCGGGACCGAUGACU [FiskerMod 16 - Jieux - Same State - Tryptophan B] | 119 nM
ACGUCCGGAUUAAUCGUGGGCAUGGUCGAUACCAGAUCUUUAAUGAUCCCUUGGCAGCGACAUGAGUGAUGUUCAUGUGCGAUGA [KL-XTheo-A8 #analogue] | 152 nM
GGAUGCAUAGUAGAUACCAGCAAGCUCGGAUAGUGAUGUUGUUCGCAGUCAUUUCGGUAGUGCCCUUGGCAGCUAGACGCCCGAU [theeternabot_exclusion_KL_Theo_B_36] | 92.7 nM
GAGGCCAGACUGAGUGAUGUUUAGUAUGAUACCAGUAUCGAAGGAUACCCUUGGCAGCAUGCCACGGCCUCGGCGGGAAACCGCC | 663 nM
GAGUCCUUUGAAGGAUAUAGACGUCCCGAUCACUCAGUUGGCGAGCGAGUGAUGUUCGUUCCUAUACUAGAAGGUCAAAGCCUCC [theeternabot_sameState_KL_FMN_B_32] | 193 nM
AGACUACCACACUGUCAAUAGACAGUGGACUAGGAUAUGCUGAUAAGCAGAAGGAGUGAUGUUCCUCGGUAGUCAAUAAAAUAAU [FmnAX 13 G28+C67] | 318 nM
CUCGAGUGAUGUUCGAUUAUUUAUACAGAUACCAGUGAAUUUUAACACCCUUGGCAGCUGGUAGUAUCGUUGUAAUUUACACAAG [JR_ExcTheophyA_Sub004] | 163 nM
GGGAAGGACGGAGGAUAUGCACUGAGGAGGAGAAUAUAGUGAUGUUAUAUAAGAGGAAGGAGCUGAGUAGAAGGCCGAGGAAAGG [whbob_SS_FMNB__2th207] | 87.9 nM
AGUGAUAUAUGAGGAUAUGGGAUUGUUAAUGAGUUAGUUUUAGUGUUGUUUGGUUAGUGAUGUUAUUUAGAAGGCGUGAGUGAUG [kuktrmullin] | 87.4 nM
UGUAAUUCGGCGGCCGCCACUGACCAUAGCCUUCGAUGGCCAGUGAUGUUGGCCUCUGGCUCUAACAGGACCGGGCCGAAUUGCG [Sotetiqu] | 133 nM
AAAGUUGAUGAGUUGGGUAUGUGUUCCGAAGGAGCGAGAAUUAUCUCAGGUAGGUCGCGGAAGAUGAGUGAUGUUCAUCUAUAAA [KL-XArg-A8 #analogue] | 137 nM
